This is an account of results in the RNAGym collection of RNA variant scans (doi:10.7554/elife.80360).

To fix the notation:
B1: HDV Ribozyme (parent)
chain: GGCCGGCAUGGUCCCAGCCUCCUCGCUGGCGCCGGCUGGGCAACAUUCCGAGGGGACCGUCCCCUCGGUAAUGGCGAAUGGGACCCA

Variants of B1 are the subject of the series. The experiment in a line: self-cleavage, relative activity (ratio to wild type); higher = more cleavage; co-transcriptional.
Take GGCCGGCAUGGUCCCAGCCUCCUCGCUGGCGCCGGCUGGGCAACAUUCCGAGGGGACCGUCCCCUCGGUAAUGGCGCAUGGGCCCCA: the self-cleavage was 0.172. For GGCCGGCAUGGUCCCAGCCUCCUCGCUGGCGCCGGCUGGGCAACAUUCCGAGGGGACUCUCCCCUCGGUAAUGGCGAAUGGGACCCA the value was 0.923; for GGCCGGCAUGGUCCCAGCCUCCUCGCUGGCGCCGGCUGGGCAACAUUCCGUGGGGACCGUCCCCUCGGUAAUGGCGAAAGGGACCCA, 1.09. For GGCCGGCAUGGUCCCAGCCUCCUCGCUGGCGCCGGCUGAGCAACAUUCCGAGGGGACCGUCCCCUCGGUAAUGGCGAAUGCGACCCA the value was 0.113; for GGCCGGCAUGGUCCCAGCCUCCUCGCUGGCGCCGGCUGGGCAACAUUCCGAGGGGACCGUCCCCUCGGUAAUGGCGAAUGCAACCCA, 0.0665; for GGCCGGCAUGGUCCCAGCGUCCUCGCUGGCGCCGGCUGGGCAACAUUCCGUGGGGACCGUCCCCUCGGUAAUGGCGAAUGGGACCCA, 0.0678. For GGCCGGCAUGGUCCCAGCCUCCUUGCUGGCGCCGGCUGGGCAACAUUCCGAGGGGACCGUCCCCUCGGUCAUGGCGAAUGGGACCCA the value was 0.573. In the case of GGCCGGCAUGGUCCCAGCCUCCUCGCUGGCGCCGGAUGGGCAACAUUCCGGGGGGACCGUCCCCUCGGUAAUGGCGAAUGGGACCCA, the self-cleavage came to 0.269. Take GGCCGGCAUGGUCCCAGCCACCUCGCUGGCGCCGGCUGGGCACCAUUCCGAGGGGACCGUCCCCUCGGUAAUGGCGAAUGGGACCCA: the self-cleavage stood at 0.0978. For GGCCGGCAUGGUCCCAGCCUCCUCGCUGGCGCCGGCUGGGCAACAUUCCGGGGGGACCGUCCCCUCGGUAAUGGCGAAUAGGACCCA the value was 0.376; for GGCCGGCAUGCUCCCAGCCCCCUCGCUGGCGCCGGCUGGGCAACAUUCCGAGGGGACCGUCCCCUCGGUAAUGGCGAAUGGGACCCA, 0.0437. For the variant GGCCGGCAUGGUCCCAGCCUCCUCGCUGGCGCCAGCUGGGCAACAUUCCGAGGGGACCGUCCACUCGGUAAUGGCGAAUGGGACCCA, the self-cleavage came out at 0.231.

In the case of GGCCGGCAUGGUCCCAGCCUCCUCGCUGCCGCCGGCUGGGCAACAUUCCGAGGGGACCGUCCCCUCGGUAAUGGCGAAUGCGACCCA, the self-cleavage was 0.18. Turning to GGCCGGCAUGGUCCCAGCCUCCUCGCUGGCGACGGCUGGGCAACAUUUCGAGGGGACCGUCCCCUCGGUAAUGGCGAAUGGGACCCA, the self-cleavage is 0.106. With GGCCGCCAUGGUCCCAGCCUCCUCGCUGUCGCCGGCUGGGCAACAUUCCGAGGGGACCGUCCCCUCGGUAAUGGCGAAUGGGACCCA, the self-cleavage was 0.111. Consider GGCCGGCAUGGUCCGAGCCUCCUCGCUGGCGCCGGCUGGGCAACAUUCCGAGGGGACCGUCCCCUCGGUAAUGGCGAAUGGGUCCCA, for which the self-cleavage came to 0.0791. The result for GGCCGGCAUGGUCCCAGCCUCCACGCUGGCGCCGGCUGGACAACAUUCCGAGGGGACCGUCCCCUCGGUAAUGGCGAAUGGGACCCA reads 1.14; that for GGCCGGCAUGGUCCCAGCCUCCUCGCUGGCGCCGGCUGGGCAUCAUUCCGAGGGGACCGUCCGCUCGGUAAUGGCGAAUGGGACCCA, 0.394; that for GGCCGGCAUGGUCCCAGCCUCCUCGCUGGCGCCGGCUGGGCAGCAUUCCGAGGGGACCGUCCCCUCGGUAAUGGCGAAUGGGACGCA, 0.791. The result for GGCCGGCAUGGUCCAAGCCUCCUCGCUGGCGCCGGCUGGGCAACAUUCCGAGGGGACGGUCCCCUCGGUAAUGGCGAAUGGGACCCA reads 1.02. Take GGCCGGCAUGGUCCCAGCCUCCUCGCUGGCGCCGGCUGGGCAACAUACCGAGGGGACCGUCCCCUCGGUAAUGGCGGAUGGGACCCA: the self-cleavage was determined as 0.831. For GGCCGGCAUGGUCCCAGUCUCCUCGCUGGCACCGGCUGGGCAACAUUCCGAGGGGACCGUCCCCUCGGUAAUGGCGAAUGGGACCCA, the self-cleavage was found to be 0.0702. For the variant GGCCGGCAUGGUCCCAGCCUCCUAGCUGGCGCCGGCUGGGCAACAUUCCGAGGGGACCGUCCCCUCGGUAAUGGCGACUGGGACCCA, the self-cleavage is 0.133. For GGCCGGCAUGGUCCCAGCCUCCUCGCUGGCGCCGGCUGGGCAACAUUCCGUGGGGACCGUCCCCUCUGUAAUGGCGAAUGGGACCCA, the self-cleavage came out at 0.816. Regarding GGCCGGCAUGGUCCCAGCCUCCUCGCUGGCGCCGGCUGGGCAACAUUCCGAGGGGACCGUCCCCUCGGUAAGGGCGCAUGGGACCCA, the self-cleavage was found to be 0.128. For CGCCGGCAUGGUCCCAGCCUCCUCGCUGGCGCCGGCUUGGCAACAUUCCGAGGGGACCGUCCCCUCGGUAAUGGCGAAUGGGACCCA the value was 0.0396. The result for GGCCGGCAUGGUCCCAGCCUCCUCGCUGGCGCCGUCUGGGCAACAUUCCGAGGGGACCGUCCCCUCGGUAAUGGCGAAUGGGACCCG reads 0.257; that for GGCCGGCAUGGUCCCAGCCUCCUCGCUGGCGCCGGCUGGGCAACACUCCGAGGGGACCGUCCCCUCGCUAAUGGCGAAUGGGACCCA, 0.739; that for GGCCGGCAUCGUCCCAGCCUCCUCGCUGGCGCCGGCUGGGCAACAUUCCGAGGGGACCGUCCCCUCGGUAAUGGCGAAUCGGACCCA, 0.104. For GGCCGGCAUGGUCCCAGCCUCCUCGCUGGCGCCGGCUGGGCAACAUUCCGAGGGGACCGUCCCCCCGGUAACGGCGAAUGGGACCCA the value was 0.609; for GGCCGGCAUGGUCCCAGUCUCCUCGCUGGCGCCGGCUGGGCAACAUUCCGAGGGGACCGUCCCCUCGGUAAUGGCGAAGGGGACCCA, 0.119. Turning to GGCCGGCAUGGUCCCCGCCUCAUCGCUGGCGCCGGCUGGGCAACAUUCCGAGGGGACCGUCCCCUCGGUAAUGGCGAAUGGGACCCA, the self-cleavage is 0.0594.
